These results are taken from article PMC6533321 (EJNMMI Research, 2019).

In one series the target is T1, hSST2 (Homo sapiens, UniProt P30874).
T1 construct: expressed in transfected cells; donated by Prof; S. Schultz, Jena
As to the kind of experiment: Competition binding against [^125I-Tyr^25]LTT-SS28 in HEK293-hSST2 cell membranes. Particulars: mean ± sd, read-out: IC50 (displacement of [^125I-Tyr^25]LTT-SS28). The procedure: (§1) The HEK293 cell line was transfected to stably express each of the hSST2/3/5 and the resultant HEK293-hSST2/3/5 cells used for receptor affinity assessments were donated by Prof. S. Schultz (Institute of Pharmacology and Toxicology, University Hospital, Friedrich Schiller University Jena, Germany). Cells were cultured at 37 °C and 5% CO2 in Dulbecco’s modified Eagle’s medium containing 10% fetal bovine serum, 100 U/mL penicillin, […] G418, as previously described. Culture reagents were from Gibco BRL, Life Technologies, and Biochrom KG Seromed.
(§2) [^125I-Tyr^25]LTT-SS28 served as radioligand and LTT-SS28 ([Leu^8,DTrp^22,Tyr^25]SS28) as reference compound [28, 30, 32]. Briefly, radioligand (70 μL, 50 pM corresponding to ≈ 40,000 cpm), test peptide (30 μL solution of increasing concentrations, 10^− 5–10^− 13 M), and membrane homogenates (200 μL) were added to each assay tube (total volume of 300 μL in binding solution: 50 mM HEPES pH 7.4, 1% BSA, 5.5 mM MgCl2, 35 μM bacitracin) in triplicates for each concentration point. Samples were incubated for 60 min at 22 °C in an Incubator-Orbital Shaker unit (MPM Instr. SrI). […]

The target in the next series is hSST5 (Homo sapiens, UniProt P35346). As to the kind of experiment: Competition binding against [^125I-Tyr^25]LTT-SS28 in HEK293-hSST5 cell membranes. The conditions noted are these: mean ± sd, read-out: IC50 (displacement of [^125I-Tyr^25]LTT-SS28). The procedure:
as §1, §2

The target of another series is T2, hSST3 (Homo sapiens, UniProt P32745).
T2 construct: expressed in transfected cells; donated by Prof; S. Schultz, Jena
In words: Competition binding against [^125I-Tyr^25]LTT-SS28 in HEK293-hSST3 cell membranes. Particulars: mean ± sd, read-out: IC50 (displacement of [^125I-Tyr^25]LTT-SS28). The procedure:
as §1
[^125I-Tyr^25]LTT-SS28 served as radioligand and LTT-SS28 ([Leu^8,DTrp^22,Tyr^25]SS28) as reference compound [28, 30, 32]. Briefly, radioligand (70 μL, 50 pM corresponding to ≈ 40,000 cpm), test peptide (30 μL solution of increasing concentrations, 10^− 5–10^− 13 M), and membrane homogenates (200 μL) were added to each assay tube (total volume of 300 μL in binding solution: 50 mM HEPES pH 7.4, 1% BSA, 5.5 mM MgCl2, 35 μM bacitracin) in triplicates for each concentration point. Samples were incubated for 60 min at 22 °C in an Incubator-Orbital Shaker unit (MPM Instr. SrI). […] Filters were collected, and their activity measured in a γ-counter (automated well-type multisample gamma counter; NaI(Tl) 3″ crystal, Canberra Packard Auto-Gamma 5000 series instrument).

For series [1], the system named is MPC-mCherry tumour-bearing NMRI-nude mice. As to the kind of experiment: Ex vivo biodistribution 60 min p.i. Particulars: female, mouse, in vivo, iv, 1 h. As for the experimental part:
(§3) A number of 2 × 10^6 MPC-mCherry cells were transplanted subcutaneously into the right shoulder of female NMRI-nude mice (8 to 10 weeks old, RjOrl:NMRI-Foxn1^nu /Foxn1^nu, Janvier Labs). […] Animals were sacrificed at 60 min post-injection (p.i.). […] The activity of the tissue samples was decay-corrected and calibrated by comparing the counts in tissue with the counts in aliquots of the injected radiotracer that had been measured in the γ-counter at the same time. The activity in the selected organs was expressed as percent-injected activity per organ (%IA) and the activity concentration in tissues and organs as standardised uptake value (SUV in [MBq activity/g tissue]/[MBq injected activity/g body weight]). Values are quoted as mean ± standard deviation for each group of animals.

Series [2] is described as follows: Ex vivo biodistribution 60 min p.i. The conditions noted are these: female, NMRI-nude, mouse, in vivo, iv, total radioactivity. As for the experimental part:
as §3

The subject of another series is normal liver. The conditions noted are these: in vivo; cited from earlier work.
Series [3] concerns patient with a well-differentiated NET. In words: PET/CT in a patient with well-differentiated NET. Particulars: human, in vivo. The procedure: Despite octreotide therapy, the disease was progressing, and in 2015, the patient was treated with peptide receptor radionuclide therapy (PRRT), administering 5 GBq of [^90Y]Y-DOTA-TOC. […] Written informed consent was obtained from the patient in accordance with paragraph 37 of the updated Declaration of Helsinki, ‘Unproven Interventions in Clinical Practice’, and in accordance with the German Medical Products Act AMG §13 2b.

Residues, ends and D or L forms follow the SMILES beside them.

Sequence of hSST5 (P35346 whole entry): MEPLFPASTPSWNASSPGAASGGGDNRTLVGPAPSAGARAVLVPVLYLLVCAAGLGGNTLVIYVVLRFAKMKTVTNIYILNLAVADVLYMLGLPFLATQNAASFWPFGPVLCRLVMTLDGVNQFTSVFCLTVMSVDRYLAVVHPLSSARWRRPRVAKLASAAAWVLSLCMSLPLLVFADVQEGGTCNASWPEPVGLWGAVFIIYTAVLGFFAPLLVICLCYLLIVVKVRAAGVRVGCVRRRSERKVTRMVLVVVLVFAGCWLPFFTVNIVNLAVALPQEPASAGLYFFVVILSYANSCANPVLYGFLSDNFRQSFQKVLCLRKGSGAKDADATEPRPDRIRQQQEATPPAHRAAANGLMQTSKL
T2 sequence (P32745 whole entry): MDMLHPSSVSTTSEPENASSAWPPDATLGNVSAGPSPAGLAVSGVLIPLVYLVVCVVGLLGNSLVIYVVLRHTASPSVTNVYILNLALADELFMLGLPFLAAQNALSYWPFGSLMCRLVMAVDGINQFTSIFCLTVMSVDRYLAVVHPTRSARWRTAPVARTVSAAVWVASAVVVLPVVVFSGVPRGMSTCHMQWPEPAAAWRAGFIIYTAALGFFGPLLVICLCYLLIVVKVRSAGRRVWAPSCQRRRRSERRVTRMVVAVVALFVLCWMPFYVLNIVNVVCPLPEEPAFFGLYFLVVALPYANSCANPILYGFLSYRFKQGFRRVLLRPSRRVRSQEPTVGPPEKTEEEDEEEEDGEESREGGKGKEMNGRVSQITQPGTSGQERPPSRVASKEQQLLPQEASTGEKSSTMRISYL
T1 sequence (P30874 whole entry): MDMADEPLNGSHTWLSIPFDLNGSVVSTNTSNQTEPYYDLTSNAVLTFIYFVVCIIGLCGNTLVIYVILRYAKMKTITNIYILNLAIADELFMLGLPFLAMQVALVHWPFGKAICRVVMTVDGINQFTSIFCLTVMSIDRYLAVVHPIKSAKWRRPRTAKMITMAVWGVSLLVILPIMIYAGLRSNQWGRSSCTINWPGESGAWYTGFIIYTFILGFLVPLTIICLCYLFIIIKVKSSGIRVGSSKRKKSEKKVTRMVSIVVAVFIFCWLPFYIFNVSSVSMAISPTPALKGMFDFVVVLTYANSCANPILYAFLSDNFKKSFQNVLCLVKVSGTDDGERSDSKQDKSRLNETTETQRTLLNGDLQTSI

For the compound `CC(C)C[C@H](NC(=O)[C@H](C)NC(=O)[C@@H]1CCCN1C(=O)[C@H](CC(N)=O)NC(=O)[C@H](CO)NC(=O)[C@H](CC(N)=O)NC(=O)[C@H](C)NC(=O)[C@@H](N)CO)C(=O)N[C@@H](C)C(=O)N1CCC[C@H]1C(=O)N[C@@H](CCCN=C(N)N)C(=O)N[C@@H](CCC(=O)O)C(=O)N[C@@H](CCCN=C(N)N)C(=O)N[C@@H](CCCCN)C(=O)N[C@@H](C)C(=O)NCC(=O)N[C@H]1CSSC[C@@H](C(=O)O)NC(=O)[C@H](CO)NC(=O)[C@H]([C@@H](C)O)NC(=O)[C@H](Cc2ccc(O)cc2)NC(=O)[C@H]([C@@H](C)O)NC(=O)[C@H](CCCCN)NC(=O)[C@@H](Cc2c[nH]c3ccccc23)NC(=O)[C@H](Cc2ccccc2)NC(=O)[C@H](Cc2ccccc2)NC(=O)[C@H](CC(N)=O)NC(=O)[C@H](CCCCN)NC1=O` [LTT-SS28] (HELM PEPTIDE1{S.A.N.S.N.P.A.L.A.P.R.E.R.K.A.G.C.K.N.F.F.[dW].K.T.Y.T.S.C}$PEPTIDE1,PEPTIDE1,17:R3-28:R3$$$V2.0), the IC50 (as a rule, the concentration that inhibits the measured activity by half) at hSST2 was found to be 0.05 ± 0.01 nM; at hSST5, 0.17 ± 0.03 nM; on hSST3 it was 0.09 ± 0.01 nM.
As for `C[C@@H](O)[C@@H]1NC(=O)[C@H](CCCCN)NC(=O)[C@@H](Cc2c[nH]c3ccccc23)NC(=O)[C@H](Cc2ccc(O)cc2)NC(=O)[C@@H](NC(=O)[C@@H](Cc2ccccc2)NC(=O)CN2CCN(CC(=O)O)CCN(CC(=O)O)CCN(CC(=O)O)CC2)CSSC[C@@H](C(=O)N[C@H](CO)[C@@H](C)O)NC1=O` [[^68Ga]Ga-DOTA-TOC, metal not drawn], the Intestine uptake in series [1] is reported as 2.11±1.33 %IA. Also, the Tumour radioactivity concentration in series [1] is reported as 4.52 ± 1.96 SUV. The Tumour uptake in series [1] turned out to be 2.40±1.94 %IA. In series [2] (Blood radioactivity concentration), the SUV at 1 h stood at 0.06 ± 0.01 SUV. Also, the tissue uptake dose at 1 h amounted to 0.02 ± 0.01 %ID in series [2] (Brain uptake); 0.04 ± 0.04 %ID in series [2] (Femur uptake); 3.34 ± 0.87 %ID in series [2] (Kidneys uptake); 0.45 ± 0.09 %ID in series [2] (Liver uptake); 0.12 ± 0.01 %ID in series [2] (Lung uptake); 0.02 ± 0.01 %ID in series [2] (Ovaries uptake). The tissue uptake dose at 1 h came to 0.42 ± 0.06 %ID in series [2] (Pancreas uptake), 1.34 ± 0.39 %ID in series [2] (Stomach uptake) and 0.01 %ID in series [2] (Thyroid uptake). For the same compound, the dose excreted at 1 h in series [2] (Urine calc.) is 83.3 ± 3.73%. The “SUVmax of the liver, previous value reported” value in the series with normal liver is 12.8 ± 3.6. Further, the “SUV, blood” value in series [3] is 2.0 SUV. Moreover, in series [3], the “SUV, liver” value worked out at 23.1 SUV. Besides, the “SUV, pituitary” value in series [3] is 23.7 SUV. Moreover, in series [3], the “SUV, target lesion” value turned out to be 71.1 SUV.
